Patent US10919943B2, “Mutant proteins enabling agrochemical control of plant gene expression” (The Regents of the University of California, priority 2016, dated 2021)
Positions count from the first letter of the chain named. Names may count otherwise. Marks after values point to notes of the source that are not given here.

Legend:
[1] = Phosphatase activity of recombinant GST-HAB1 proteins (4-methylumbeliferyl phosphate); format: biochemical; details: 1 μg protein, percent control (GST-HAB1); FIG. 7
Excerpt: In the presence of ABA, wild type PYR1 binds to HAB1 and docks into its active site, which inhibits its enzymatic activity by blocking access of substrates. To characterize the orthogonal PYR1^! and HAB1^! interaction biochemically, we produced recombinant forms of each protein in E. coli, along with the wild type form, and tested the wild type and orthogonal mutant for their ability to inhibit HAB1 and HAB1^! activities in vitro. We cloned PYR1^! into pET28 to generate 6×-His tagged receptor and cloned HAB1^! into pGEX-4T-1 to create a GST-fusion protein. The previously constructed (S.-Y. Park et al., 2009) wild type 6×-His-PYR1 and GST-HAB1 constructs were used for producing recombinant wild type proteins. The 6×-His-tagged receptors and GST-tagged PP2Cs were expressed and purified as previously described. […] The plates were read using a Victor 2 plate reader (PerkinElmer) (355 nm excitation, 460 nm emission) and assays run in triplicate. The PP2C activity values reported are expressed as percent control values, which were calculated by including the carrier solvent (1% DMSO) and the specific receptor assayed, but no ligand. […]
To characterize HAB1^!-3 and HAB1* in vitro, we cloned them into pGEX-4T-1 to create GST-fusion proteins. […] The PP2C activity values reported are expressed as percent control (GST-HAB1) from triplicate measurements.

[2] = target: T1, PYR1*^-MANDI (Arabidopsis thaliana, UniProt O49686, A160V/F108A/F159V/K59R/M158I/S122G/T162D/V81I/Y58H); experiment: Yeast two hybrid, mandipropamid-induced interaction of HAB1 variants with pBD-PYR1*^-MANDI; format: cell-based; details: for effect of mutation on mandipropamid responsiveness of HAB1^!-3: selection on 500 nM mandipropamid
T1 construct: expressed in transfected cells; host or cells: S. cerevisiae strain MAV99 (selection)
T1 sequence (O49686 1-191 Y58H/K59R/V81I/F108A/S122G/M158I/F159V/A160V/T162D): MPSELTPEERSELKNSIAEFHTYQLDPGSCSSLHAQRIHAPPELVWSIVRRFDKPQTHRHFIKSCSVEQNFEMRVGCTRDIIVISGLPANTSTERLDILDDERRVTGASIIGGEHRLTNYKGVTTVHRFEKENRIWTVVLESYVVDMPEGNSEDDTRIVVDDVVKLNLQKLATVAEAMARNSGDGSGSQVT
Excerpt: To investigate the effects of overexpressing HAB1^!-2 in Arabidopsis, we used Agrobacterium mediated transformation to generate 35S::GFP-HAB1^!-2 transgenic plants. HAB1^!-2 was cloned from pACT-HAB1^!-2 into pEGAD, a binary vector suitable for plant transformation, generating a 35S-driven GFP-HAB1^!-2 fusion protein. The clone was transformed into Agrobacterium and the floral dip method used to transform Arabidopsis. After selection of T0 seed on soil containing glufosinate, several T1 seedlings were identified. […] As an alternate strategy, we eliminated HAB1's catalytic activity by introducing a mutation in a conserved metal-ion binding residue (D204), which is homologous to D131A mutation in ABI1, previously shown to eliminate phosphatase activity without disrupting wild type receptor-ABI1 interactions (Liang et al., 2011). We used QuickChange mutagenesis to introduce the D204A mutation into pACT-HAB1^!-2, generating pACT-HAB1^!-3. When tested for mandipropamid induced interactions with pBD-PYR1*^-MANDI, HAB1^!-3 is ˜10-fold less sensitive to mandipropamid relative to HAB1^!-2 (FIG. 5).
D204 is located within HAB1's catalytic active site and binds to one of 3 catalytic Mg^++ ions that participate in catalysis. […] It is likely that disruptions to active site structure introduced by D204A destabilize the PYR1*^-MANDI/HAB1^!-3 interaction relative to HAB1^!-2. We reasoned that suppressor mutations in other HAB1 interface or active site residues could restore sensitivity by strengthening interactions with PYR1*^-MANDI. To identify such suppressors, we mutagenized the pACT-HAB1^!-3 template using NNK mutagenesis in 28 residues located with at the PYR1 binding interface. The residues targeted were: R199, S200, E201, E203, D243, G244, H245, G246, G247, S322, E323, T324, D346, K365, K381, 1383, Q384, W385, Q386, R389, F391, G392, Y404, S431, G433, D436, D492 and N394. The pACT-HAB1^!-3 template was mutagenized in 28 separate NNK mutagenesis reactions using the QuickChange protocol. Mini-libraries, each containing ˜1000 clones, were made for each NNK reaction and plasmid DNA for the 28 mutations prepared, pooled, and then transformed into S. cerevisiae strain MAV99 co-transformed with pBD-PYR1*^-MANDI, and then plated onto selective SD(-Leu,-Trp,-Ura) agar media supplemented with 500 nM mandipropamid. […] S322D and R199A were combined using the Lightning Multi-site Mutagenesis™ (Agilent, USA) method, and the resultant pentuple mutant tested in combination with pBD-PYR1*^-MANDI for sensitivity to mandipropamid using β-galactosidase assays.

[3] = tested on: HAB1^!-2; experiment: Yeast two hybrid, mandipropamid-promoted interaction of PYR1 variants with HAB1^!-2; format: cell-based; details: for mandipropamid concentration to which the interaction responds: FIG. 3, FIG. 4; for relative mandipropamid sensitivity among selected mutants: β-galactosidase assays on different mandipropamid concentrations
Excerpt: To engineer orthogonal mandipropamid responsiveness, we introduced the PYR1^! mutation into the PYR1^MANDI receptor to create a septuple mutant called PYR1^!-MANDI (PYR1^Y58H;K59R;V81I;F108A;S122G;F159L;T162D). This mutant interacts with HAB1^! and HAB^!-2 in response to low μM mandipropamid in yeast two-hybrid assays, but is ˜100-fold less sensitive than the PYR1^MANDI/HAB1 interaction, which responds to concentrations in the low nM range (FIG. 3).
To improve sensitivity, we mutagenized ligand contacting and interface residues in PYR1^!-MANDI using NNK primers, pooled the mutant libraries, and used the mutagenized receptors in selection experiments using to identify enhancer mutations. The NNK mutagenesis screen targeted the following residues: P55, H60, F61, I62, K63, V83, S85, G86, L87, P88, A89, S92, E94, I110, H115, R116, L117, Y120, E141, P148, G150, N151, D154, D155, T156, M158, A160, V163, V164, L166, N167, and K170. […] Since M158 and A160 flank the […] mutation present in PYR1^MANDI, we inferred that the closely located orthogonalizing T162D mutation in PYR1^!-MANDI may have reduced mandipropamid sensitivity by altering the local structure of the C-terminal α3-helix, which participates in ligand-induced conformational changes needed for PP2C binding (Nishimura et al., 2009). We therefore simultaneously mutagenized positions M158, F159 and A160 using a primer with degenerate NNK codons at all three positions. F159 was included in this mutagenesis because we have previously observed that multiple substitutions at F159 (A,C,I,L,M,T, or V) are permissive for mandipropamid responsiveness (S. Y. Park et al., n.d.), and sought to test whether residues other than leucine at position 159 might function better in the context of simultaneous changes to both A160 and M158. The mutagenic primer was used in QuickChange mutagenesis reactions using pBD-PYR1^!-MANDI template, and a library of ˜12,000 clones was generated. Plasmid DNA for the library was prepared from pooled E. coli transformants, and subsequently transformed into S. cerevisiae strain MAV99 harboring pACT-HAB1^!-2. ˜20,000 yeast transformants were generated, pooled, and plated onto SD(-Leu,-Trp) agar media supplemented with 0.1% fluorotic acid (to select against mutants that interact in a ligand-independent fashion). The surviving cells were collected and plated onto SD(Leu,-Trp,-Ura) plates supplemented with 50 nM mandipropamid. The colonies displaying the best uracil-independent growth were isolated and retested on different mandipropamid concentrations and then stained in β-galactosidase assays to rank their relative strength.

B1: HAB1^!-3: HAB1^!-2 with the D204A mutation, catalytically inactive (protein)
chain: MTPAVAMTLSLAANTMCESSPVEITQLKNVTDAADLLSDSENQSFCNGGTECTMEDVSELEEVGEQDLLKTLSDTRSGSSNVFDEDDVLSVVEDNSAVISEGLLVVDAGSELSLSNTAMEIDNGRVLATAIIVGESSIEQVPTAEVLIAGVNQDTNTSEVVIRLPDENSNHLVKGRSVYELDCIPLWGTVSIQGNRSEMEAAFAVSPHFLKLPIKMLMGDHEGMSPSLTHLTGHFFGVYDGHGGHKVADYCRDRLHFALAEEIERIKDELCKRNTGEGRQVQWDKVFTSCFLTVDGEIEGKIGRAVVGSSDKVLEAVASETVGSTAVVALVCSSHIVVSNCGDSRAVLFRGKEAMPLSVDHKPDREDEYARIENAGGKVIQWQGARVFGRLAMSRSIGDRYLKPYVIPEPEVTFMPRSREDECLILASDGLWDVMNNQEVCEIARRRILMWHKKNGAPPLAERGKGIDPACQAAADYLSMLALQKGSKDNISIIVIDLKAQAKFKTRT
modifications: left off: small tags and cut ends
[1]
  catalytic activity in vitro: Neither HAB1^!-3 or HAB1* display detectable catalytic activity
[2]; FIG. 5
  fold less sensitive to mandipropamid relative to HAB1^!-2: ~10 fold

B2: PYR1^Y58H;K59R;V81I;F108A;S122G;M158V;F159V;A160V;T162D: PYR1 mutant with 9 mutations (protein, listed as Arabidopsis thaliana)
chain: T1 sequence (O49686 1-191 Y58H/K59R/V81I/F108A/S122G/M158I/F159V/A160V/T162D) with I158V
[3]
  mandipropamid concentration to which the interaction responds: nM responses
  relative mandipropamid sensitivity among selected mutants: slightly less sensitive than PYR1*^-MANDI

B3: PYR1^Y58H;K59R;V81I;F108A;S122G;M158I;F159V;A160C;T162D: PYR1 mutant with 9 mutations (protein, listed as Arabidopsis thaliana)
chain: T1 sequence (O49686 1-191 Y58H/K59R/V81I/F108A/S122G/M158I/F159V/A160V/T162D) with V160C
[3]
  mandipropamid concentration to which the interaction responds: nM responses
  relative mandipropamid sensitivity among selected mutants: slightly less sensitive than PYR1*^-MANDI

B4: S322D (protein, listed as Arabidopsis thaliana)
chain: MEEMTPAVAMTLSLAANTMCESSPVEITQLKNVTDAADLLSDSENQSFCNGGTECTMEDVSELEEVGEQDLLKTLSDTRSGSSNVFDEDDVLSVVEDNSAVISEGLLVVDAGSELSLSNTAMEIDNGRVLATAIIVGESSIEQVPTAEVLIAGVNQDTNTSEVVIRLPDENSNHLVKGRSVYELDCIPLWGTVSIQGNRSEMEDAFAVSPHFLKLPIKMLMGDHEGMSPSLTHLTGHFFGVYDGHGGHKVADYCRDRLHFALAEEIERIKDELCKRNTGEGRQVQWDKVFTSCFLTVDGEIEGKIGRAVVGSSDKVLEAVADETVGSTAVVALVCSSHIVVSNCGDSRAVLFRGKEAMPLSVDHKPDREDEYARIENAGGKVIQWQGARVFGVLAMSRSIGDRYLKPYVIPEPEVTFMPRSREDECLILASDGLWDVMNNQEVCEIARRRILMWHKKNGAPPLAERGKGIDPACQAAADYLSMLALQKGSKDNISIIVIDLKAQRKFKTRT
[2]
  effect of mutation on mandipropamid responsiveness of HAB1^!-3: enhance responsiveness of HAB1^!-3

B5: S322E (protein, listed as Arabidopsis thaliana)
chain: B4 chain with D322E
[2]
  effect of mutation on mandipropamid responsiveness of HAB1^!-3: enhance responsiveness of HAB1^!-3

B6: R199A (protein, listed as Arabidopsis thaliana)
chain: B4 chain with R199A, D322S
[2]
  effect of mutation on mandipropamid responsiveness of HAB1^!-3: enhance responsiveness of HAB1^!-3
